Assay results taken from paper PMC11294389.

Tests used:
GFP-Atx3 15Q (human) = GFP-Atx3 15Q (human) (UniProt P54252); experiment: co-IP; GFP-Trap agarose precipitates GFP-Atx3 from extracts of co-transfected 293T WT cells (1000 µg total protein, 20 µL bead slurry, 4 °C, 1 h); co-precipitated parkin detected by western blot and quantified by densitometry, n = 3
GFP-Atx3 77Q (human) = GFP-Atx3 77Q (human) (UniProt P54252); experiment: as above

## 6xMyc-parkin V380L (from UniProt O60260-1 1-465) (natural protein)
GFP-Atx3 15Q (human)
  reduction of co-precipitated parkin against parkin WT: 87%
GFP-Atx3 77Q (human)
  reduction of co-precipitated parkin against parkin WT: 62%
